Results published in patent US20210403538A1 (published 2021).

Legend:
EBOV GP [change] [1] = biological target: T1, EBOV GP [change] (Zaire ebolavirus (EBOV), strain Makona); assay: BLI
BDBV GP [change] = BDBV GP [change] (Bundibugyo ebolavirus (BDBV), strain …); assay: ELISA
EBOV GP [change] [2] = biological target: T1, EBOV GP [change]; assay: ELISA

B1: rEBOV-542 (antibody, V domains shown)
VH: EVQLVESGGGLVQPGGSLRLSCAASGFTVSNNYMSWVRQAPGKGLEWVSLIYTSVTTYYADSVKGRFTISRDNSKNTLYLQMNSLRAEDTAVYYCARELGNWSYGVSYWGRGTLVTVSS
VL: SYELTQPPSVSVSPGQTARITCSGDALPKQYAYWYQQKPGQAPVLVIYKDSERPSGIPERFSGSSSGTTVTLTISGVQAEDGADYYCQSADGSGTYPVVFGGGTKLTVL
Kd (EBOV GP [change] [1]): 0.26 nM
EC50 (BDBV GP [change]): 8 ng/mL
EC50 (EBOV GP [change] [2]): 11 ng/mL

B2: rEBOV-520 LALA (antibody, V domains shown)
VH: QVQLQESGPGLGKPSETLSLSCTVSGASIRGYFWNWIRQPPGKGLEWIGYIHSTGSTNYNPSLKSRVTISVDTSKNQVSLNVNSVTAADTAVYFCARGAWNVATVYYYYGMDVWGQGTLVTVSS
VL: EIVLTQSPGTLSLSPGERATLSCRASQSVSSSYFAWYQQKPGQAPRLLISGTSTRAPGIPDRFSGSGSGTDFTLTISRLEPEDFAVYFCQQYGNSLYTFGQGTKLEIK
Kd (EBOV GP [change] [1]): 2.12 nM
EC50 (BDBV GP [change]): 45 ng/mL
EC50 (EBOV GP [change] [2]): 18 ng/mL

B3: EBOV-515 (antibody, V domains shown)
VH: QVQLQESGPGLVKPSQTLSLTCTVSGGSINSAGYYWTWIRQHPGKGLEWIGYIDYTGRTYYNPSLESRVIISIDTSKNHFSLRLTSVSAADTAVYYCARESSWVSELGRDNWGQGTLVTVSS
VL: EIVMTQSPATLPVSPGEGATLSCRASQSVFTNLAWYQQKPGQAPRLLIYDASTRATGIPARFSGSGSGTEFTLTISSLQSEDFAVYYCQQYNNWPRTYGQGTRVEVK
Kd (EBOV GP [change] [1]): 0.53 nM

B4: rEBOV-548 (antibody, V domains shown)
VH: QVQVEESGGGVVQPGGSLRLSCAASGFMFSNYGMHWVRQAPGKGLEWMAFIRYDDSKKFYADSVKGRFTISRDNSKNTLYLQMNSLRAEDTALYYCAKELLQVYTSAWGEGHSYYYALDVWGLGTAVTVSS
VL: DIQMTQSPSSVSASVGDRVTITCRASQDISNWLAWYQQKPGKAPELLIYTASILQSGVSSRFSGSGSGTDFTLTISSLQPEDSATYYCQQGKSFPYTFGQGTKLEIK
Kd (EBOV GP [change] [1]): 0.041 nM
EC50 (BDBV GP [change]): 7 ng/mL
EC50 (EBOV GP [change] [2]): 6 ng/mL
